For assay [1], the target named is T1, HER2 on BT474 cells (human, UniProt P04626 23-1255). Description: cell-based or functional assay.
Assay [2] deals with T2, human HER2 (human, UniProt P04626 23-652, limits assumed).
T2 construct: This is HER2 as used in the surface plasmon resonance experiments; also called ErbB2; Human Epidermal Growth Factor Receptor 2
Description: SPR, global fit over several concentrations; Protein #21-His. How it is done: (§1) Its affinity to HER2 was assessed by surface plasmon resonance as described in WO2014/083208.
Background: SPR reads the build-up and loss of mass on a sensor chip optically.

Assay [3] deals with mouse serum albumin (mouse, UniProt P07724 25-608). Briefly: ProteOn SPR, PBS pH 7.4.
Sequence of mouse serum albumin (P07724 25-608 limits assumed): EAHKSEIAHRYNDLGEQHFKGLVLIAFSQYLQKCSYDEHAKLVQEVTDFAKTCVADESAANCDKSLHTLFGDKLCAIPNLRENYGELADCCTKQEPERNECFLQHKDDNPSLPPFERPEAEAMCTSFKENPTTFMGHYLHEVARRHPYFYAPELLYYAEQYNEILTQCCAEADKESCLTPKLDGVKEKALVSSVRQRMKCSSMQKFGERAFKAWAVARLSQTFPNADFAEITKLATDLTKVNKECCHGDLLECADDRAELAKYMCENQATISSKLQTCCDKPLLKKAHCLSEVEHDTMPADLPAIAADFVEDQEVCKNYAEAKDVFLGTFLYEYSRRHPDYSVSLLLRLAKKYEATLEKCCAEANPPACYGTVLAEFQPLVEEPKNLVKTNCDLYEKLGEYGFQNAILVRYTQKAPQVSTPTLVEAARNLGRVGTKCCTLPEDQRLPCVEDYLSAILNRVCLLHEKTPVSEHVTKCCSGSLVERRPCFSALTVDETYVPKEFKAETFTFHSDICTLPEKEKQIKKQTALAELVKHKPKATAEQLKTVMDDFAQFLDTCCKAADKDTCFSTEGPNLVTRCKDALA
The target of assay [4] is cynomolgus monkey serum albumin (cynomolgus monkey, UniProt A2V9Z4 25-608). Briefly: ProteOn SPR, PBS pH 7.4.
Sequence of cynomolgus monkey serum albumin (A2V9Z4 25-608 limits assumed): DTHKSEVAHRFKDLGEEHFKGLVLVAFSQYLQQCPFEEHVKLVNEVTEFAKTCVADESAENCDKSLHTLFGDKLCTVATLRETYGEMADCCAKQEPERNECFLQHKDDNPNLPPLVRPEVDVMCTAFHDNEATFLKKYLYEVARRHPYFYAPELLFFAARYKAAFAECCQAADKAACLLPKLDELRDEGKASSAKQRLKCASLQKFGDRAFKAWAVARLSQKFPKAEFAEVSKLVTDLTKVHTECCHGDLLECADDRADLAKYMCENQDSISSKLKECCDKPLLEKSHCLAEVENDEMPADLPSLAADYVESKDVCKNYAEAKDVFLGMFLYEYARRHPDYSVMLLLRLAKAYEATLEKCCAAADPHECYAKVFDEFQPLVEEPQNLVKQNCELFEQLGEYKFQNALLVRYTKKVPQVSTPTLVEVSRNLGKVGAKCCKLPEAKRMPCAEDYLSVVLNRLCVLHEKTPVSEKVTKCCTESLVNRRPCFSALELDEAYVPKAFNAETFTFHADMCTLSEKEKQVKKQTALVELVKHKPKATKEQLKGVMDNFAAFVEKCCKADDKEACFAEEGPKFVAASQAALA
In assay [5] the target is T3, human serum albumin (human, UniProt P02768 25-609).
T3 construct: also called HSA
Briefly: ProteOn SPR, PBS pH 7.4.

For assay [6], the target named is T4, extracellular domain of HER3 (UniProt P21860 20-643).
T4 construct: extracellular domain; also called ErbB3
Description: surface plasmon resonance.

Assay [7] concerns the target T5, extracellular domain of EGFR (UniProt P00533 25-645).
T5 construct: extracellular domain; also called ErbB1; HER1
Description: surface plasmon resonance.

The target of assay [8] is T3, human serum albumin. Description: SPR; Protein #21 at 100 nM.
For assay [9], the target named is T1, HER2 on BT474 cells. Description: cell-based or functional assay. The source holds these as a separate data set.
Assay [10] has as its target T2, human HER2. Description: SPR.
Assay [11] deals with T2, human HER2. Description: SPR, global fit over several concentrations; Protein #23-His. How it is done:
as §1

B1: Protein #21-His (designed binder)
chain: MRGSHHHHHHGSDLGKKLLEAARAGQDDEVRELLKAGADVNAKDYFSHTPLHLAARNGHLKIVEVLLKAGADVNAKDFAGKTPLHLAANEGHLEIVEVLLKAGADVNAQDIFGKTPADIAADAGHEDIAEVLQKAAGSPTPTPTTPTPTPTTPTPTPTGSDLGIKLLFAAAKGQDDEVRELLKAGADVNAKDFQGVTPLHIAAQSGHLEIVEVLLKAGADVNAKDVTGDTPLHLAAQHGHLEIVEVLLKAGADVNAQDERGWTPADLAADWGHEDIAEVLQKAAGSPTPTPTTPTPTPTTPTPTPTGSDLGKKLLEAARAGQDDEVRELLKAGADVNAKDEYGLTPLYLATAHGHLEIVEVLLKAGADVNAVDAIGFTPLHLAAFIGHLEIAEVLLKAGADVNAQDKFGKTPADIAAGAGNEDIAEVLQKAAGSPTPTPTTPTPTPTTPTPTPTGSDLGKKLLEAARAGQDDEVRELLKAGADVNAKDYFSHTPLHLAARNGHLKIVEVLLKAGADVNAKDFAGKTPLHLAANEGHLEIVEVLLKAGADVNAQDIFGKTPADIAADAGHEDIAEVLQKAA
notes: also called Protein #31-His
Regarding B1, in assay [1], the “IC50, inhibition of BT474 cell proliferation (BrdU)” value came out at 1.5 nM. The same molecule gave a Kd in assay [2] of 0.027 nM.

B2: Protein #14-His (designed binder)
chain: MRGSHHHHHHGSDLGKKLLEAARAGQDDEVRELLKAGADVNAKDYFSHTPLHLAARNGHLKIVEVLLKAGADVNAKDFAGKTPLHLAANEGHLEIVEVLLKAGADVNAQDIFGKTPADIAADAGHEDIAEVLQKAA
Consider B2, for which the Kd in assay [3], in [4] and in assay [5] was < 100 nM each time.

B3: Protein #13-His (designed binder)
chain: MRGSHHHHHHGSDLGKKLLEAARAGQDDEVRELLKAGADVNAKDYFSHTPLHLAARNGHLKIVEVLLKAGADVNAKDFAGKTPLHLAANDGHLEIVEVLLKAGADVNAQDIFGKTPADIAADAGHEDIAEVLQKAA
In the case of B3, the Kd in assay [3], in assay [4] and in assay [5] was < 100 nM each time.

B4: Protein #21 (designed binder)
chain: GSDLGKKLLEAARAGQDDEVRELLKAGADVNAKDYFSHTPLHLAARNGHLKIVEVLLKAGADVNAKDFAGKTPLHLAANEGHLEIVEVLLKAGADVNAQDIFGKTPADIAADAGHEDIAEVLQKAAGSPTPTPTTPTPTPTTPTPTPTGSDLGIKLLFAAAKGQDDEVRELLKAGADVNAKDFQGVTPLHIAAQSGHLEIVEVLLKAGADVNAKDVTGDTPLHLAAQHGHLEIVEVLLKAGADVNAQDERGWTPADLAADWGHEDIAEVLQKAAGSPTPTPTTPTPTPTTPTPTPTGSDLGKKLLEAARAGQDDEVRELLKAGADVNAKDEYGLTPLYLATAHGHLEIVEVLLKAGADVNAVDAIGFTPLHLAAFIGHLEIAEVLLKAGADVNAQDKFGKTPADIAAGAGNEDIAEVLQKAAGSPTPTPTTPTPTPTTPTPTPTGSDLGKKLLEAARAGQDDEVRELLKAGADVNAKDYFSHTPLHLAARNGHLKIVEVLLKAGADVNAKDFAGKTPLHLAANEGHLEIVEVLLKAGADVNAQDIFGKTPADIAADAGHEDIAEVLQKAA
notes: Untagged
Turning to B4, the “EC50, induction of apoptosis in BT474 cells (Caspase 3/7 activation)” value in assay [1] is 2.4 nM. Further, in assay [6], the binding result was “no binding”. Besides, the binding result in assay [7] is given as “no binding”. The same molecule gave a Kd in assay [8] of 21 nM. In addition, in assay [9], the “phosphorylation AKT S124, fold change to PBS (mass spectrometry)” value is 0.99 fold change to PBS; the “phosphorylation AKT S129, fold change to PBS (mass spectrometry)” value was 0.93 fold change to PBS; the “phosphorylation RAF S642, fold change to PBS (mass spectrometry)” value is 0.81 fold change to PBS; the “phosphorylation RAF T631/T638/T640/T641/S642, fold change to PBS (mass spectrometry)” value was 0.48 fold change to PBS. In assay [9], the “phosphorylation RPS6KB1/S6Kinase S441/T444/S447, fold change to PBS (mass spectrometry)” value was 0.63 fold change to PBS; the “phosphorylation RPS6KB1/S6Kinase T444/S447, fold change to PBS (mass spectrometry)” value is 0.92 fold change to PBS; the “phosphorylation mTOR S2448/S2454, fold change to PBS (mass spectrometry)” value is 0.79 fold change to PBS.

B5: Protein #16-His (designed binder)
chain: MRGSHHHHHHGSDLGIKLLFAAAKGQDDEVRELLKAGADVNAKDFQGVTPLHIAAQSGHLEIVEVLLKAGADVNAKDVTGDTPLHLAAQHGHLEIVEVLLKAGADVNAQDERGWTPADLAADWGHEDIAEVLQKAA
As to B5, binding in [10] was put at a Kd of 0.009 nM.

B6: Protein #23-His (designed binder)
chain: MRGSHHHHHHGSDLGKKLLEAARAGQDDEVRELLKAGADVNAKDYFSHTPLHLAARNGHLKIVEVLLKAGADVNAKDFAGKTPLHLAANEGHLEIVEVLLKAGADVNAQDIFGKTPADIAADAGHEDIAEVLQKAAGSPTPTPTTPTPTPTTPTPTPTGSDLGVKLLWAAARGQDDEVRELLKAGADVNAKDFQGITPLHIAATNGHLEIVEVLLKAGADVNAKDITGETPLHHAADSGHLEIVEVLLKAGADVNAQDKAGVTPADLAAAWGHEDIAEVLQKAAGSPTPTPTTPTPTPTTPTPTPTGSDLGKKLLEAARAGQDDEVRELLKAGADVNAKDEYGLTPLYLATAHGHLEIVEVLLKAGADVNAVDAIGFTPLHLAAFIGHLEIAEVLLKAGADVNAQDKFGKTPADIAAGAGNEDIAEVLQKAAGSPTPTPTTPTPTPTTPTPTPTGSDLGKKLLEAARAGQDDEVRELLKAGADVNAKDYFSHTPLHLAARNGHLKIVEVLLKAGADVNAKDFAGKTPLHLAANEGHLEIVEVLLKAGADVNAQDIFGKTPADIAADAGHEDIAEVLQKAA
As to B6, in [1], the “IC50, inhibition of BT474 cell proliferation (BrdU)” value came to 2.4 nM. Also, in assay [11], the dissociation constant Kd turned out to be 0.064 nM.

B7: Protein #17-His (designed binder)
chain: MRGSHHHHHHGSDLGKKLLEAARAGQDDEVRELLKAGADVNAKDEYGLTPLYLATAHGHLEIVEVLLKAGADVNAVDAIGFTPLHLAAFIGHLEIAEVLLKAGADVNAQDKFGKTPADIAAGAGNEDIAEVLQKAA
The molecule B7 showed a Kd in [10] of 0.152 nM.

Broadly, the Kd is a measure of binding affinity in units of concentration.

(Values after patent publication US20180155402A1 (Molecular Partners, published 2018).)
